US9062100B2, “Anti-human TROP-2 antibody having anti-tumor activity in vivo” (LIVTECH, INC., dated 2015)
Where no end group is shown, it is not given here.

Assays:
human TROP-2 (hTROP-2) [1] = target: T1, human TROP-2 (hTROP-2) (human); experiment: FACS on PK-59 cells
T1 chain: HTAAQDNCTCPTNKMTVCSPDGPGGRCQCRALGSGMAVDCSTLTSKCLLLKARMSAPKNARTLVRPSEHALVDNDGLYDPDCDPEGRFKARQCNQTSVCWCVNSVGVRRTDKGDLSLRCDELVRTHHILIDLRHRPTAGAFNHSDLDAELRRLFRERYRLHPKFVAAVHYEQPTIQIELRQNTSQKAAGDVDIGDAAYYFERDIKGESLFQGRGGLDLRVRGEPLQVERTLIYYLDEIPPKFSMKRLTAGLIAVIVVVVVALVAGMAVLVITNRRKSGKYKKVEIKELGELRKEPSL

human TROP-2 (hTROP-2) [2] = target: T1, human TROP-2 (hTROP-2); experiment: FACS on BxPC-3 cells
Table 7 peptide No. 1 = target: T2, Table 7 peptide No. 1 (human); experiment: PEPSCAN CLIPS peptide ELISA
T2 peptide: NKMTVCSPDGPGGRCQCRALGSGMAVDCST

Table 7 peptide No. 2 = target: T3, Table 7 peptide No. 2 (human); experiment: PEPSCAN CLIPS peptide ELISA
T3 peptide: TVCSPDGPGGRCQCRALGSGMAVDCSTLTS

Table 7 peptide No. 3 = target: T4, Table 7 peptide No. 3 (human, not fully specified); experiment: PEPSCAN CLIPS peptide ELISA
T4 peptide: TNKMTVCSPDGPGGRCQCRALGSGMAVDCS

Table 7 peptide No. 4 = target: T5, Table 7 peptide No. 4 (human, not fully specified); experiment: PEPSCAN CLIPS peptide ELISA
T5 peptide: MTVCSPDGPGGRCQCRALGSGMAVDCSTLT

Table 7 peptide No. 6 = target: T6, Table 7 peptide No. 6 (human, not fully specified); experiment: PEPSCAN CLIPS peptide ELISA
T6 peptide: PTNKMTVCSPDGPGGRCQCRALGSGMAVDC

Table 7 peptide No. 7 = target: T7, Table 7 peptide No. 7 (human, not fully specified); experiment: PEPSCAN CLIPS peptide ELISA
T7 peptide: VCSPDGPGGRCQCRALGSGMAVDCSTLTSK

Table 7 peptide No. 8 = target: T8, Table 7 peptide No. 8 (human, not fully specified); experiment: PEPSCAN CLIPS peptide ELISA
T8 peptide: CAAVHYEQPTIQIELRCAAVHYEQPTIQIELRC

Table 7 peptide No. 9 = target: T9, Table 7 peptide No. 9 (human, not fully specified); experiment: PEPSCAN CLIPS peptide ELISA
T9 peptide: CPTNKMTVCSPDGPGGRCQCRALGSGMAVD

Table 7 peptide No. 10 = target: T10, Table 7 peptide No. 10 (human); experiment: PEPSCAN CLIPS peptide ELISA
T10 peptide: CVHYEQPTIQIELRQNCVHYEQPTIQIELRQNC

Table 7 peptide No. 11 = target: T11, Table 7 peptide No. 11 (human); experiment: PEPSCAN CLIPS peptide ELISA
T11 peptide: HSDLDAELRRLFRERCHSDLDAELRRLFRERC

Table 7 peptide No. 12 = target: T12, Table 7 peptide No. 12 (human); experiment: PEPSCAN CLIPS peptide ELISA
T12 peptide: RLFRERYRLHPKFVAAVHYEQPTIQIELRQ

Table 7 peptide No. 13 = target: T13, Table 7 peptide No. 13 (human); experiment: PEPSCAN CLIPS peptide ELISA
T13 peptide: AVHYEQPTIQIELRQ

Table 7 peptide No. 14 = target: T14, Table 7 peptide No. 14 (human); experiment: PEPSCAN CLIPS peptide ELISA
T14 peptide: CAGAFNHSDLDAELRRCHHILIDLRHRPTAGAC

Table 7 peptide No. 15 = target: T15, Table 7 peptide No. 15 (human); experiment: PEPSCAN CLIPS peptide ELISA
T15 peptide: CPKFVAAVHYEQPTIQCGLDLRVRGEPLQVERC

Table 7 peptide No. 16 = target: T16, Table 7 peptide No. 16 (human); experiment: PEPSCAN CLIPS peptide ELISA
T16 peptide: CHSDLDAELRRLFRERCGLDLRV

Table 7 peptide No. 17 = target: T17, Table 7 peptide No. 17 (human); experiment: PEPSCAN CLIPS peptide ELISA
T17 peptide: FQGRGGLDLRVRGEP

Table 7 peptide No. 18 = target: T18, Table 7 peptide No. 18 (human); experiment: PEPSCAN CLIPS peptide ELISA
T18 peptide: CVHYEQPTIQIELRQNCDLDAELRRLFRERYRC

Table 7 peptide No. 19 = target: T19, Table 7 peptide No. 19 (human); experiment: PEPSCAN CLIPS peptide ELISA
T19 peptide: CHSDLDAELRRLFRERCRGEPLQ

Table 7 peptide No. 20 = target: T20, Table 7 peptide No. 20 (human); experiment: PEPSCAN CLIPS peptide ELISA
T20 peptide: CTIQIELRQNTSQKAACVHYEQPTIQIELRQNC

Table 7 peptide No. 21 = target: T21, Table 7 peptide No. 21 (human); experiment: PEPSCAN CLIPS peptide ELISA
T21 peptide: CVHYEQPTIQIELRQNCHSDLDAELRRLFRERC

Table 7 peptide No. 22 = target: T22, Table 7 peptide No. 22 (human); experiment: PEPSCAN CLIPS peptide ELISA
T22 peptide: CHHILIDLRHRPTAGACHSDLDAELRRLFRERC

Table 7 peptide No. 23 = target: T23, Table 7 peptide No. 23 (human, not fully specified); experiment: PEPSCAN CLIPS peptide ELISA
T23 peptide: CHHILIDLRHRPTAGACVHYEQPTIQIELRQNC

Table 7 peptide No. 24 = target: T24, Table 7 peptide No. 24 (human, not fully specified); experiment: PEPSCAN CLIPS peptide ELISA
T24 peptide: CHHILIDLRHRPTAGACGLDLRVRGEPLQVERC

Table 7 peptide No. 25 = target: T25, Table 7 peptide No. 25 (human, not fully specified); experiment: PEPSCAN CLIPS peptide ELISA
T25 peptide: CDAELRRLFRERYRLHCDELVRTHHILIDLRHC

Table 7 peptide No. 26 = target: T26, Table 7 peptide No. 26 (human, not fully specified; cysteine pairing not given here); experiment: PEPSCAN CLIPS peptide ELISA
T26 peptide: CVHYEQPTIQIELRQNC

Table 7 peptide No. 27 = target: T27, Table 7 peptide No. 27 (human, not fully specified); experiment: PEPSCAN CLIPS peptide ELISA
T27 peptide: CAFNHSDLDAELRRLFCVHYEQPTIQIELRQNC

Table 7 peptide No. 28 = target: T28, Table 7 peptide No. 28 (human, not fully specified); experiment: PEPSCAN CLIPS peptide ELISA
T28 peptide: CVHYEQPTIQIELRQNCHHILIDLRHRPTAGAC

Table 7 peptide No. 29 = target: T29, Table 7 peptide No. 29 (human, not fully specified); experiment: PEPSCAN CLIPS peptide ELISA
T29 peptide: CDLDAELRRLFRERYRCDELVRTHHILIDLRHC

Table 7 peptide No. 30 = target: T30, Table 7 peptide No. 30 (human, not fully specified); experiment: PEPSCAN CLIPS peptide ELISA
T30 peptide: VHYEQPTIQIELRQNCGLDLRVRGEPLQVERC

Table 7 peptide No. 31 = target: T31, Table 7 peptide No. 31 (human, not fully specified); experiment: PEPSCAN CLIPS peptide ELISA
T31 peptide: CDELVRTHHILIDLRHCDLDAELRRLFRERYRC

Table 7 peptide No. 32 = target: T32, Table 7 peptide No. 32 (human, not fully specified); experiment: PEPSCAN CLIPS peptide ELISA
T32 peptide: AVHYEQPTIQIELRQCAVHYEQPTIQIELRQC

Table 7 peptide No. 33 = target: T33, Table 7 peptide No. 33 (human, not fully specified); experiment: PEPSCAN CLIPS peptide ELISA
T33 peptide: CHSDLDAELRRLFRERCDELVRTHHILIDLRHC

[3] = target: T34, recombinant protein of the extracellular region of hTROP-2 (human); experiment: ELISA of free antibody after equilibration with antigen in solution
T34 sequence: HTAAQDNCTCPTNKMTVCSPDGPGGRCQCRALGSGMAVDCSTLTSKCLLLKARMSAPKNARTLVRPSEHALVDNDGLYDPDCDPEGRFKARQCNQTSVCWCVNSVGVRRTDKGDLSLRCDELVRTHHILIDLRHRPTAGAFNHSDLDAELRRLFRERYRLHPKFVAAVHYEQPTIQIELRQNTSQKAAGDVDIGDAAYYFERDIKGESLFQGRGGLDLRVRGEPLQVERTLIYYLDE

B1: anti-hTROP-2 monoclonal antibody K5-70 (antibody, V domains shown)
VH: QVQLQQPGAELVRPGASVKLSCKASGYTFTIYWINWVKQRPGQGLEWIGNIYPSDSYTNYNQKFKDKATLTVDKSSSTAYMQLSSPTSEDSAVYYCTRTSMADYWGQGTTLTVSS
VL: DILLTQSPAILSVSPGERVSFSCRASQSIGTSIHWYQQRTNGSPRLLIKYASESISGIPSRFSGSGSGTDFTLSINSVESEDIADYYCQQSNSWPFTFGSGTKLEIK
For B1, the “mean fluorescence intensity, times that with PE-labeled anti-mouse IgG only” value (human TROP-2 (hTROP-2) [1]) was 44 times, the “mean fluorescence intensity, times that with PE-labeled anti-mouse IgG only” value (human TROP-2 (hTROP-2) [2]) was 45 times and the “binding of K5-70” value (Table 7 peptide No. 1) was 2740. The “binding of K5-70” value (Table 7 peptide No. 2) was 2600, the “binding of K5-70” value (Table 7 peptide No. 3) was 2560 and the “binding of K5-70” value (Table 7 peptide No. 4) was 2400. The “binding of K5-70” value (Table 7 peptide No. 6) was 1390, the “binding of K5-70” value (Table 7 peptide No. 7) was 932 and the “binding of K5-70” value (Table 7 peptide No. 8) was 876. The “binding of K5-70” value (Table 7 peptide No. 9) was 839, the “binding of K5-70” value (Table 7 peptide No. 10) was 825 and the “binding of K5-70” value (Table 7 peptide No. 11) was 725. The “binding of K5-70” value (Table 7 peptide No. 12) was 687, the “binding of K5-70” value (Table 7 peptide No. 13) was 642 and the “binding of K5-70” value (Table 7 peptide No. 14) was 624. The “binding of K5-70” value (Table 7 peptide No. 15) was 579, the “binding of K5-70” value (Table 7 peptide No. 16) was 538 and the “binding of K5-70” value (Table 7 peptide No. 17) was 538. For the same binder, the “binding of K5-70” value (Table 7 peptide No. 18) was 524, the “binding of K5-70” value (Table 7 peptide No. 19) was 519 and the “binding of K5-70” value (Table 7 peptide No. 20) was 513. For the same binder, the “binding of K5-70” value (Table 7 peptide No. 21) was 511, the “binding of K5-70” value (Table 7 peptide No. 22) was 489 and the “binding of K5-70” value (Table 7 peptide No. 23) was 489. For the same binder, the “binding of K5-70” value (Table 7 peptide No. 24) was 488, the “binding of K5-70” value (Table 7 peptide No. 25) was 483 and the “binding of K5-70” value (Table 7 peptide No. 26) was 483. The “binding of K5-70” value (Table 7 peptide No. 27) was 478, the “binding of K5-70” value (Table 7 peptide No. 28) was 473 and the “binding of K5-70” value (Table 7 peptide No. 29) was 472. For the same binder, the “binding of K5-70” value (Table 7 peptide No. 30) was 470, the “binding of K5-70” value (Table 7 peptide No. 31) was 469 and the “binding of K5-70” value (Table 7 peptide No. 32) was 468. The “binding of K5-70” value (Table 7 peptide No. 33) was 466 and the Kd [3] was 6.8 pM.
